Test results from publication PMC6451128, “Structural and functional analysis of the nucleotide and DNA binding activities of the human PIF1 helicase”.
Residue numbers refer to the chain shown, from its start.

Columns and labels:
Settings in all cases: protein: recombinant; tags: His tag removed, GSRM left; label: 5' 32P (PNK)
[1] = target: T1, hPIF1HD R290A (human, UniProt Q9H611 206-620, R290A); assay: EMSA; no nucleotide; apparent, near saturation not reached; 20 mM HEPES-NaOH pH 7.5 (Results say pH 7.2), 135 mM NaCl, 5% glycerol, 1 mM DTT, 1 mg/ml BSA, 20 min at 20 C; 0.4 nM T(35); G4 assay: 0.1 nM G4 DNA, 2% PEG 8000 instead of glycerol, 5 uM T(35) competitor
T1 sequence: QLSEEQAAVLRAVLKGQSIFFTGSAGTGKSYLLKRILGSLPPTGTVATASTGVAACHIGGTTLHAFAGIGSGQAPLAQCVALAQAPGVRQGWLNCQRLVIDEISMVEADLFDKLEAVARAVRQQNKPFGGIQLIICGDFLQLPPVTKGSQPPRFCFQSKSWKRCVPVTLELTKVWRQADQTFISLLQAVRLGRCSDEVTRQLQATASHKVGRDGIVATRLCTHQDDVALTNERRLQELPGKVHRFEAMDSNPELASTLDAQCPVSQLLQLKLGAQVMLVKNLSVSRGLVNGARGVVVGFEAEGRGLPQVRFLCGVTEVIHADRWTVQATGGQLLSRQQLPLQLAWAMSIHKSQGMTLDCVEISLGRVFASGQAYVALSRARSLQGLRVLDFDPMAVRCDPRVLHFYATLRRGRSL

[2] = target: T2, hPIF1HD K414A (human, UniProt Q9H611 206-620, K414A); assay: EMSA; no nucleotide; apparent; 20 mM HEPES-NaOH pH 7.5 (Results say pH 7.2), 135 mM NaCl, 5% glycerol, 1 mM DTT, 1 mg/ml BSA, 20 min at 20 C; 0.4 nM T(35); G4 assay: 0.1 nM G4 DNA, 2% PEG 8000 instead of glycerol, 5 uM T(35) competitor
T2 sequence: T1 sequence with A85R, K209A

[3] = target: T3, hPIF1HD E307Q (human, UniProt Q9H611 206-620, E307Q); assay: as above
T3 sequence: T1 sequence with A85R, E102Q

[4] = target: T4, hPIF1HD R294A (human, UniProt Q9H611 206-620, R294A); assay: as above
T4 sequence: T1 sequence with A85R, R89A

Question: TTTTTTTTTTTTTTTTTTTTTTTTTTTTTTTTTTT (ssDNA) [poly-T(35)] was tested. Which Kd [1] did it give?
Answer: ~40.4 nM

Question: And the Kd [2]?
Answer: 1.6 ± 0.4 nM

Question: What about the Kd [3] of the same binder?
Answer: 3.6 ± 0.5 nM

Question: And the Kd [4]?
Answer: 5.7 ± 1.6 nM
